Source: publication PMC10681723, “The N-terminus of Spt16 anchors FACT to MCM2–7 for parental histone recycling” (Nucleic Acids Research, 2023)

Target: Recombinant Saccharomyces cerevisiae histone H3/H4 (Saccharomyces cerevisiae, UniProt P61830 1-136; P02309 1-103)
Assay: pull-down; 2 μg GST-Mcm2HBD on Glutathione Sepharose; 0.1, 0.2 and 0.4 μg histone H3/H4 in 0.4 ml buffer A150 (25 mM Tris pH 7.5, 1 mM EDTA, 0.01% NP-40, 150 mM NaCl), 6 h, 4°C; CBB staining
Settings: both partners purified

B1: GST-tagged Mcm2HBD (residues 1–200) (domain or fragment, yeast, UniProt P29469 1-200, looked up)
chain: MSDNRRRRREEDDSDSENELPPSSPQQHFRGGMNPVSSPIGSPDMINPEGDDNEVDDVPDIDEVEEQMNEVDLMDDNMYEDYAADHNRDRYDPDQVDDREQQELSLSERRRIDAQLNERDRLLRNVAYIDDEDEEQEGAAQLDEMGLPVQRRRRRRQYEDLENSDDDLLSDMDIDPLREELTLESLSNVKANSYSEWITQ
notes: also called GST-Mcm2HBD; source: E. coli BL21(DE3) CodonPlus RIL, pGEX4T-1, purified (Glutathione Sepharose)
Does B1 bind?
Result: binds
